Earlier results in publication PMC10530501.

Columns and labels:
C1q (Homo sapiens) = C1q (Homo sapiens) (UniProt P02745)
TLR4 (Homo sapiens) = TLR4 (Homo sapiens) (UniProt O00206); test: SPR
Chain of UniProt O00206 (O00206 24-631): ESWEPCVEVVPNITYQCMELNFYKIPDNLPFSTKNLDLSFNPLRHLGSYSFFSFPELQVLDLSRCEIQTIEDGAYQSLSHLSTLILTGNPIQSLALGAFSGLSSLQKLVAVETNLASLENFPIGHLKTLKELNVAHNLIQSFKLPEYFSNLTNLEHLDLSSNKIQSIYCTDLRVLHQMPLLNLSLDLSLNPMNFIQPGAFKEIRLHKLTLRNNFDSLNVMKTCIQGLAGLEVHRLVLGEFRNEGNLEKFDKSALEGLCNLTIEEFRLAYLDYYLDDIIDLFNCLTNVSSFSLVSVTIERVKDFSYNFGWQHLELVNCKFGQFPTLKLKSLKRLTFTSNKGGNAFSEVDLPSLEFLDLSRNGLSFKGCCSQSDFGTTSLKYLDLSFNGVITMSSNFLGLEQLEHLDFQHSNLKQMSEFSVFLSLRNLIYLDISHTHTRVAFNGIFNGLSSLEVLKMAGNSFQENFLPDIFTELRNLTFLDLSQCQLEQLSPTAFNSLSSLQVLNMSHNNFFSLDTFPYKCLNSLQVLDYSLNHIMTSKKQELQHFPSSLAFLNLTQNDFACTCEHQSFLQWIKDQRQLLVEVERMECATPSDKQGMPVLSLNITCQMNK

Chain of UniProt P02745 (P02745 23-245, chain 1 of 3): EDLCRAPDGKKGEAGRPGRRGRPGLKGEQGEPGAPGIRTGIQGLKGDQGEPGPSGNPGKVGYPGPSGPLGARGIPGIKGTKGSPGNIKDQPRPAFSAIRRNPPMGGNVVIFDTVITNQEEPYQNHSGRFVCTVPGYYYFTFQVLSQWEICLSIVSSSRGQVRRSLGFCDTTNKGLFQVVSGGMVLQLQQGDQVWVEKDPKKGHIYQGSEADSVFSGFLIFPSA
Chain of UniProt P02745 (P02746 28-253, chain 2 of 3, further chain): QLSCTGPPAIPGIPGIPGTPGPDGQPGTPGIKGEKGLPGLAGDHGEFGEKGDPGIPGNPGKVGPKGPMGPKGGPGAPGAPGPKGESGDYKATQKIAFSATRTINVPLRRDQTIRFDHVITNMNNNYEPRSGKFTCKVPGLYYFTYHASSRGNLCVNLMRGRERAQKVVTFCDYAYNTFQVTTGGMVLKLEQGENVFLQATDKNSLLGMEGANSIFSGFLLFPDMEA
Chain of UniProt P02745 (P02747 29-245, chain 3 of 3, further chain): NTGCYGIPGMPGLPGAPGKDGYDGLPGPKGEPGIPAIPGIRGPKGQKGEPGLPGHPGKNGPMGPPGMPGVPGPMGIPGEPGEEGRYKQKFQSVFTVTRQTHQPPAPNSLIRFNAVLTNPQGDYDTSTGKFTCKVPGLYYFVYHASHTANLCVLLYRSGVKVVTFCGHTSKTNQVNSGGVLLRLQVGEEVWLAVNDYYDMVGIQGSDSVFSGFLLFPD

Substance	Kd (C1q (Homo sapiens)) [nM]	Kd (TLR4 (Homo sapiens)) [nM]
HMGB1 (from UniProt P09429)	200	
pCTS-L (from UniProt P07711)		20.2
